Source: the supplement of paper PMC7125110
± gives the standard error. Fewer inactive variants are shown than the library holds.

B1: glmS ribozyme (parent)
chain: AUAAAAGCGCCAGAACUACAGAAAUGUAGUUGACGAGGAGGAGGUUUAUCGAAUUUUCGGCGGAUGCCUCCAAA

Tests used:
Conditions in all cases: with glucosamine-6-phosphate
glucosamine-6-phosphate [1] = variants of: B1; test: self-cleavage kobs at 640 uM GlcN6P; higher = faster cleavage; RNA array
How it was run: (§1)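 Barcoded ribozyme variants were transcribed in situ on sequenced MiSeq chips by E. coli RNA polymerase. At 37 °C, a hybridised Cy3 probe tracked them while glucosamine-6-phosphate (40 μM to 10 mM) in HEPES/KCl/Mg(OAc)2 buffer flowed in and tiles were imaged over ~14 h. Per-tile medians of signals normalised to baseline and to non-cleaving reference variants were fit to one- or two-exponential decays, giving kobs. kcat and KM came from weighted Michaelis–Menten fits across concentrations.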

glucosamine-6-phosphate [2] = variants of: B1; test: self-cleavage kobs at 2500 uM GlcN6P; higher = faster cleavage; RNA array
How it was run: as §1

glucosamine-6-phosphate [3] = variants of: B1; test: self-cleavage kobs at 10000 uM GlcN6P; higher = faster cleavage; RNA array
How it was run: as §1

Row | Variant | self-cleavage kobs at 640 uM GlcN6P (glucosamine-6-phosphate [1]) | self-cleavage kobs at 2500 uM GlcN6P (glucosamine-6-phosphate [2]) | self-cleavage kobs at 10000 uM GlcN6P (glucosamine-6-phosphate [3])
1 | AUAAAAGCGCCAGAACUACAGAAAUGUAGUUGACGUGGUGGAGGCUUAUCGAAUUUUUGGCGGAUGCCUCCAAA [A36U A39U U45C C58U] | < 1e-05 s⁻¹ | < 1e-05 s⁻¹ | –
2 | AUAAAAGCGCCAGAACUACAGAAAUGUAGGUGACGAGGAGUAGGUUUAUAGAAUUUUCGGCGGAUGCCUCCAAA [U30G G41U C50A] | < 1e-05 s⁻¹ | < 1e-05 s⁻¹ | –
3 | AUAAAAGCGCCAGAACUACAGAAAUGUAGUUGACGAGGAGGAGGUUUAACGAAUCUUCGGCGGAUGCCUCGAAA [U49A U55C C71G] | < 1e-05 s⁻¹ | – | –
4 | AUAAAACCGCCAGAACUACAGAAAUGUAGUUGACGAGGAGGAGGUUUCUCGAAUUUUCGGCGGAUGCCUACAAA [G7C A48C C70A] | < 1e-05 s⁻¹ | – | –
5 | AUAAAGGCGCCAGAACUACAGAAAUGUAGUUGACGAGGAGGAGGUUUAUGGUAUUUUCUGCGGAUGCCUCCAAA [A6G C50G A52U G59U] | < 1e-05 s⁻¹ | – | –
6 | AUAAAGGCGCCCGAACUACAGAAAUGUAGUUGACGAGGAGGACGUUUAUCGAAUUUUCGGCGGAUGCCUCCAAA [A6G A12C G43C] | < 1e-05 s⁻¹ | < 1e-05 s⁻¹ | –
7 | AUAAAAGCGCCAGAACUACAGAAAUGUACUUGACGAGUUGGAGGUUUAUAGAAUUUUCGGCGGAUGCCUCCAAA [G29C G38U A39U C50A] | < 1e-05 s⁻¹ | < 1e-05 s⁻¹ | –
8 | AUAAAGGCGCCAGAACUACAGAAAUGUAGUUGACGAGAAGGAGGUUUAUCGAAUUUUCGGCGGAUGCGUCCAAA [A6G G38A C68G] | < 1e-05 s⁻¹ | – | –
9 | AUAAAAACGCCCGAACUACAGAAAUGUAGUUGACGAGGAGGCGGUUUACCGAAUUUUCGGCGGAUGCCUCCAAA [G7A A12C A42C U49C] | < 1e-05 s⁻¹ | – | –
10 | AUAAAAGCGCCAGAAGUACAGAAAUGUAGUUGACGAGGAGCAGGUUUAUCGAAUUUUCGGCAGGUGCCUCCAAA [C16G G41C G62A A64G] | < 1e-05 s⁻¹ | < 1e-05 s⁻¹ | –
11 | AUAAAAGCGCCAGAACUACAGAAAUGUAGAUGACGAGGAGUAUGUUUAUCGAACUUUCGGCGGAUGCCUCCAAA [U30A G41U G43U U54C] | < 1e-05 s⁻¹ | – | –
12 | AUAAAAGCGCCGGAACUACAGAAAUGUAGUUGACGAGGGGGAGGUUUAUCGAAUUUUCGGCGGAUGCCUGCAAA [A12G A39G C70G] | 0.00011 ± 3.5e-05 s⁻¹ | – | –
13 | AUAAAAGCGCCAGAACCACAGAAAUGUAGUUGACGAGGAGGAGUUUCAUCGAAUUUUCGGCGGAUGCCUCCAAA [U17C G44U U47C] | < 1e-05 s⁻¹ | – | –
14 | AUAAAAGCGCCAGAGCUACAGAAAUGUAGUUGACGAGGAGGAGGUUGAUCGAAUGUUCGGCGGAUGCCUACAAA [A15G U47G U55G C70A] | 0.000102 ± 1.7e-05 s⁻¹ | – | –
15 | AUAAAAGCGCCAGAACUACAGAAAUGUAGUUGACAAGGAGGAGGUGUAUCGAAUUUUCGGGGGAUGCCUCCAAA [G35A U46G C61G] | < 1e-05 s⁻¹ | < 1e-05 s⁻¹ | < 1e-05 s⁻¹
16 | AUAAAGGCUCCAGAACUACAGAAAUGUAGUUGACGAGGAGGAGGUUUAUCGAAUUUUCGGCGGGUGCCUCCAAA [A6G G9U A64G] | < 1e-05 s⁻¹ | – | –
17 | AUAAAAGCGCCAGGACUACAGAAAUGUAGUUGUCGAGGAGGAGUUUCAUCGAAUUUUCGGCGUAUGCCUCCAAA [A14G A33U G44U U47C G63U] | < 1e-05 s⁻¹ | < 1e-05 s⁻¹ | < 1e-05 s⁻¹
18 | AUAAAAGUGCCAGAACUACAGAAAUGUAGUUGACGAGGAGGAGGAUUUUUGAAUUUUCGGCGGAUGCCUCCAAA [C8U U45A A48U C50U] | < 1e-05 s⁻¹ | < 1e-05 s⁻¹ | –
19 | AUAAAAGCGCCAGAACUACAGAAAUGUAGUUAACGGGGCGUAUGUUUAUCGAAUUUUCGGCGGAUGCCUCCAAA [G32A A36G A39C G41U G43U] | < 1e-05 s⁻¹ | – | –
20 | AUAAAAGGGCCAGUACUACAGAAAUGUAGUUGACGAGGAGGAGGUUUAGCGAUUUUUCGGUGGAUGCCUCCAAA [C8G A14U U49G A53U C61U] | < 1e-05 s⁻¹ | – | –
21 | AUAAAAGCGCCAGAACUACAGAAAUGUAGUUGACGAGGAGGUGGUUUAUCGAUUUUUCCGCCGAUGCCUCCAAA [A42U A53U G59C G62C] | < 1e-05 s⁻¹ | < 1e-05 s⁻¹ | –
22 | AUAAAAGCGGCAGAGCUACAGAAAUGUAGUUGACGAGGUGGAGGUUUAUCGAAUUUUCGCCGGAUGCAUCCAAA [C10G A15G A39U G60C C68A] | < 1e-05 s⁻¹ | < 1e-05 s⁻¹ | –
23 | AUAAAAGCGCAAGAACUACAGAAAUGUAGUUGACAAGGAGGAGGUUUAUCGAAUUUUCGGCGUCUGCCUCCAAA [C11A G35A G63U A64C] | < 1e-05 s⁻¹ | < 1e-05 s⁻¹ | –
24 | AUAAAAUCGCCAUAUCUACAGAAAUGUAGUUGACGAGGAGGAGGUUUAUAAAAUUUUCGUCGGAUGACUCAAAA [G7U G13U A15U C50A G51A G60U C67A C71A] | 0.000375 ± 0.00012 s⁻¹ | – | –
